Target: the molecule itself
Assay: high-speed atomic force microscopy

B1: bacterial glycerol uptake facilitator GlpF (natural protein)
chain: MSQTSTLKGQSIAEFLGTGLLIFFGVGSVAALKVAGASFGQWEISVIWGLGVAMAIYLTAGVSGAHLNPAVTIALWLFASFDKRKVIPFIVSQVAGAFSAAALVYGLYYNLFFDFEQTHHIVRGSVESVDLAGTFSTYPNPHINFVQAFAVEMVITAILMGLILALTDDGNGVPRGPLAPLLIGLLIAVIGASMGPLTGFAMNPARDFGPKVFAWLAGWGNVAFTGGRDIPYFLVPLFGPIVGAIVGAFAYRKLIGRHLPCDICVVEEKETTTPSEQKASL
modifications: Atto 488 maleimide on cysteines (C261 and C264)
In the case of B1, the “stoichiometry N” value is reported as 4.
